From paper PMC9482650, “Quantitative fragmentomics allow affinity mapping of interactomes” (Nature Communications, 2022)

T1: LIN7B, Q9HAP6
T1 sequence (Q9HAP6 88-185, limits assumed, looked up): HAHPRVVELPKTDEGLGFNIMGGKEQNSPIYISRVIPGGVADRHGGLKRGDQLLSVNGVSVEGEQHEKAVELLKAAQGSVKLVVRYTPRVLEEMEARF

T2: NHERF3_1, Q5T2W1
T2 sequence (Q5T2W1 4-100, limits assumed, looked up): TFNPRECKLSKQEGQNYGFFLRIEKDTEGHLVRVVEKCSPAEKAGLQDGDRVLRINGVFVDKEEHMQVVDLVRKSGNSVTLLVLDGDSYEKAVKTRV

T3: SNTG1, Q9NSN8
T3 sequence (Q9NSN8 52-150, limits assumed, looked up): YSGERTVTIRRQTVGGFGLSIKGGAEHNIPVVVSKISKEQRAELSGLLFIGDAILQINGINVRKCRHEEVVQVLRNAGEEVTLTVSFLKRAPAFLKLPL

T4: LRRC7, Q96NW7
T4 sequence (Q96NW7 1440-1537, limits assumed, looked up): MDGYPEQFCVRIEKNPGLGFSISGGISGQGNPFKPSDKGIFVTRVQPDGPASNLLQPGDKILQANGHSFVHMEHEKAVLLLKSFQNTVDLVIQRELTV

T5: PCLO, Q9Y6V0
T5 sequence (Q9Y6V0 4491-4600, limits assumed, looked up): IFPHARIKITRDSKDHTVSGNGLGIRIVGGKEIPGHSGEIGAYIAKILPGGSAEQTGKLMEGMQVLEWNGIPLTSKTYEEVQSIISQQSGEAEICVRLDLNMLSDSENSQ

T6: CARD11, Q9BXL7
T6 sequence (Q9BXL7 662-765, limits assumed, looked up): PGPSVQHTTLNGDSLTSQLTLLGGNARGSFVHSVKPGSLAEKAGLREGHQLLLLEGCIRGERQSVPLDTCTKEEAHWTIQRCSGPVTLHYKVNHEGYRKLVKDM

T7: HTRA3, P83110
T7 sequence (P83110 354-453, limits assumed, looked up): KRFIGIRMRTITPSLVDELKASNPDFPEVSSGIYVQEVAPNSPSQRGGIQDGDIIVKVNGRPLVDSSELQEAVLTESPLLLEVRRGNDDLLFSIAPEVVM

T8: NHERF3_3, Q5T2W1
T8 sequence (Q5T2W1 238-333, limits assumed, looked up): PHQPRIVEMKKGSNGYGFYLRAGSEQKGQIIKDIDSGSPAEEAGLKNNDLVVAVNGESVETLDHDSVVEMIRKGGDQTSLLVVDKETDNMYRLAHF

T9: LNX2_2, Q8N448
T9 sequence (Q8N448 334-432, limits assumed, looked up): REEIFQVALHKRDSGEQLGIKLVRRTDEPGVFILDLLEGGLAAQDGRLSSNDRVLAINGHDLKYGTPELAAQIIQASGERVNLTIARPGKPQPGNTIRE


These binders were tested against Inadl_10, Q8NI35 (assay: holdup assay). Settings: plain residues with an end cap or a label only (N-terminal biotin on a linker: ado-ado).
Sequence of Inadl_10, Q8NI35 (Q8NI35 1673-1763): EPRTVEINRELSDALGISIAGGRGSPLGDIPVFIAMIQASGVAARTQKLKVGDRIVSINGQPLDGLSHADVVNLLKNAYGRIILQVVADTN
Parameters: key: below the threshold = too weak to quantify, mostly under pKd 3.1 to 4

pKd	Binder
below the threshold	NIAESLESLV [PTPRZ1, P23471]

These binders were tested against GRIP2_7, Q9C0E4 (assay: holdup assay). Settings: plain residues with an end cap or a label only (N-terminal biotin on a linker: ado-ado).
Sequence of GRIP2_7, Q9C0E4 (Q9C0E4 934-1023): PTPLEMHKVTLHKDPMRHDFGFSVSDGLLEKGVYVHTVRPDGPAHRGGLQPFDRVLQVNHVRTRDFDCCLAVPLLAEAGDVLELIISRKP
Parameters: key: below the threshold = too weak to quantify, mostly under pKd 3.1 to 4

pKd	Binder
below the threshold	NIAESLESLV [PTPRZ1, P23471]

Each binder was assayed against GRIP2_5, Q9C0E4 (assay: holdup assay). Settings: plain residues with an end cap or a label only (N-terminal biotin on a linker: ado-ado).
Sequence of GRIP2_5, Q9C0E4 (Q9C0E4 544-642): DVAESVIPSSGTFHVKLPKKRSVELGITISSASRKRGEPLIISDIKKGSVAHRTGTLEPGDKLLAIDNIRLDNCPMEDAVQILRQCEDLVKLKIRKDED
Parameters: key: below the threshold = too weak to quantify, mostly under pKd 3.1 to 4

pKd	Binder
below the threshold	NIAESLESLV [PTPRZ1, P23471]

What follows are binders tested against Inadl_5, Q8NI35 (assay: holdup assay). Settings: plain residues with an end cap or a label only (N-terminal biotin on a linker: ado-ado).
Sequence of Inadl_5, Q8NI35 (Q8NI35 673-780): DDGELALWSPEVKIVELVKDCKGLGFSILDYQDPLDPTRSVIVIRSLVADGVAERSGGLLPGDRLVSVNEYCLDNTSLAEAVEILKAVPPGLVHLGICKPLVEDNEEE
Parameters: key: below the threshold = too weak to quantify, mostly under pKd 3.1 to 4

pKd	Binder
below the threshold	NIAESLESLV [PTPRZ1, P23471]

These binders were tested against IL16_3, Q14005 (assay: holdup assay). Settings: plain residues with an end cap or a label only (N-terminal biotin on a linker: ado-ado).
Sequence of IL16_3, Q14005 (Q14005 1107-1207): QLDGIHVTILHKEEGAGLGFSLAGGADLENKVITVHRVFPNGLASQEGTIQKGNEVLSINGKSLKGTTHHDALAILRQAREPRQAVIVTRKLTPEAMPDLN
Parameters: key: below the threshold = too weak to quantify, mostly under pKd 3.1 to 4

pKd	Binder
below the threshold	NIAESLESLV [PTPRZ1, P23471]

The binders below were run against SCRIB_2, Q14160 (assay: holdup assay). Settings: plain residues with an end cap or a label only (N-terminal biotin on a linker: ado-ado).
Sequence of SCRIB_2, Q14160 (Q14160 857-960): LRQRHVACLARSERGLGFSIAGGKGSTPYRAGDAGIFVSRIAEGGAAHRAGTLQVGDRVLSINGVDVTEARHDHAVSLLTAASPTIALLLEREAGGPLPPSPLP
Parameters: key: below the threshold = too weak to quantify, mostly under pKd 3.1 to 4

pKd	Binder
3.66	NIAESLESLV [PTPRZ1, P23471]

What follows are binders tested against T1, LIN7B, Q9HAP6 (assay: holdup assay). Settings: plain residues with an end cap or a label only (N-terminal biotin on a linker: ado-ado).
Parameters: key: below the threshold = too weak to quantify, mostly under pKd 3.1 to 4

pKd	Binder
below the threshold	NIAESLESLV [PTPRZ1, P23471]

What follows are binders tested against NHERF4_1, Q86UT5-2 (assay: holdup assay). Settings: plain residues with an end cap or a label only (N-terminal biotin on a linker: ado-ado).
Sequence of NHERF4_1, Q86UT5-2 (Q86UT5 other isoform, or with tags, fused parts or gaps): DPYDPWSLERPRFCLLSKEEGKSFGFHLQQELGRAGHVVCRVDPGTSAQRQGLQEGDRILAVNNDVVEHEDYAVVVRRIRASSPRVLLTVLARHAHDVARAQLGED
Parameters: key: below the threshold = too weak to quantify, mostly under pKd 3.1 to 4

pKd	Binder
3.7	NIAESLESLV [PTPRZ1, P23471]

Each binder was assayed against T2, NHERF3_1, Q5T2W1 (assay: holdup assay). Settings: plain residues with an end cap or a label only (N-terminal biotin on a linker: ado-ado).
Parameters: key: below the threshold = too weak to quantify, mostly under pKd 3.1 to 4

pKd	Binder
4.59	NIAESLESLV [PTPRZ1, P23471]

What follows are binders tested against PICK1, Q9NRD5 (assay: holdup assay). Settings: plain residues with an end cap or a label only (N-terminal biotin on a linker: ado-ado).
Sequence of PICK1, Q9NRD5 (Q9NRD5 17-115): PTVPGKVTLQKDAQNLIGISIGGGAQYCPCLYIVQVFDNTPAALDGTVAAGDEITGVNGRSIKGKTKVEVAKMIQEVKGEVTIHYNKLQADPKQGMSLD
Parameters: key: below the threshold = too weak to quantify, mostly under pKd 3.1 to 4

pKd	Binder
below the threshold	NIAESLESLV [PTPRZ1, P23471]

These binders were tested against T3, SNTG1, Q9NSN8 (assay: holdup assay). Settings: plain residues with an end cap or a label only (N-terminal biotin on a linker: ado-ado).
Parameters: key: below the threshold = too weak to quantify, mostly under pKd 3.1 to 4

pKd	Binder
4.94	NIAESLESLV [PTPRZ1, P23471]

Each binder was assayed against DLG5_1, Q8TDM6 (assay: holdup assay). Settings: plain residues with an end cap or a label only (N-terminal biotin on a linker: ado-ado).
Sequence of DLG5_1, Q8TDM6 (Q8TDM6 617-713): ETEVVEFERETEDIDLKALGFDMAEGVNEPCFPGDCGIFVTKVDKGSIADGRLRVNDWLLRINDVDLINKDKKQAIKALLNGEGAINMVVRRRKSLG
Parameters: key: below the threshold = too weak to quantify, mostly under pKd 3.1 to 4

pKd	Binder
below the threshold	NIAESLESLV [PTPRZ1, P23471]

These binders were tested against DLG4_3, P78352 (assay: holdup assay). Settings: plain residues with an end cap or a label only (N-terminal biotin on a linker: ado-ado).
Sequence of DLG4_3, P78352 (P78352 306-403): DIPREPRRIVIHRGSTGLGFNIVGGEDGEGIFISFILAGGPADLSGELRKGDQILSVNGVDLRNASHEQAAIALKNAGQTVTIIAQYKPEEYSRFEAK
Parameters: key: below the threshold = too weak to quantify, mostly under pKd 3.1 to 4

pKd	Binder
below the threshold	NIAESLESLV [PTPRZ1, P23471]

Each binder was assayed against T4, LRRC7, Q96NW7 (assay: holdup assay). Settings: plain residues with an end cap or a label only (N-terminal biotin on a linker: ado-ado).
Parameters: key: below the threshold = too weak to quantify, mostly under pKd 3.1 to 4

pKd	Binder
3.76	NIAESLESLV [PTPRZ1, P23471]

Each binder was assayed against T5, PCLO, Q9Y6V0 (assay: holdup assay). Settings: plain residues with an end cap or a label only (N-terminal biotin on a linker: ado-ado).
Parameters: key: below the threshold = too weak to quantify, mostly under pKd 3.1 to 4

pKd	Binder
below the threshold	NIAESLESLV [PTPRZ1, P23471]

Each binder was assayed against T6, CARD11, Q9BXL7 (assay: holdup assay). Settings: plain residues with an end cap or a label only (N-terminal biotin on a linker: ado-ado).
Parameters: key: below the threshold = too weak to quantify, mostly under pKd 3.1 to 4

pKd	Binder
below the threshold	NIAESLESLV [PTPRZ1, P23471]

These binders were tested against NHERF4_2, Q86UT5 (assay: holdup assay). Settings: plain residues with an end cap or a label only (N-terminal biotin on a linker: ado-ado).
Sequence of NHERF4_2, Q86UT5 (Q86UT5 220-308): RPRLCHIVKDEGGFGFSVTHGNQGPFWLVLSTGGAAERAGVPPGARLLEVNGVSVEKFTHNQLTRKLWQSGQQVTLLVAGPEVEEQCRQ
Parameters: key: below the threshold = too weak to quantify, mostly under pKd 3.1 to 4

pKd	Binder
below the threshold	NIAESLESLV [PTPRZ1, P23471]

The binders below were run against MAGI2_4, Q86UL8 (assay: holdup assay). Settings: plain residues with an end cap or a label only (N-terminal biotin on a linker: ado-ado).
Sequence of MAGI2_4, Q86UL8 (Q86UL8 772-865): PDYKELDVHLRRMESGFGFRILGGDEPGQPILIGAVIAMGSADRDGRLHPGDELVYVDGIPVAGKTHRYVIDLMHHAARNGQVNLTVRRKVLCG
Parameters: key: below the threshold = too weak to quantify, mostly under pKd 3.1 to 4

pKd	Binder
4.45	NIAESLESLV [PTPRZ1, P23471]

Each binder was assayed against LAP2, Q96RT1 (assay: holdup assay). Settings: plain residues with an end cap or a label only (N-terminal biotin on a linker: ado-ado).
Sequence of LAP2, Q96RT1 (Q96RT1 other isoform, or with tags, fused parts or gaps): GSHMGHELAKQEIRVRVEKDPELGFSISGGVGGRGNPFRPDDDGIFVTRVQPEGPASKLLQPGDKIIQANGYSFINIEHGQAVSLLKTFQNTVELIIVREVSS
Parameters: key: below the threshold = too weak to quantify, mostly under pKd 3.1 to 4

pKd	Binder
4.25	NIAESLESLV [PTPRZ1, P23471]

The binders below were run against LDB3, O75112 (assay: holdup assay). Settings: plain residues with an end cap or a label only (N-terminal biotin on a linker: ado-ado).
Sequence of LDB3, O75112 (O75112 1-94): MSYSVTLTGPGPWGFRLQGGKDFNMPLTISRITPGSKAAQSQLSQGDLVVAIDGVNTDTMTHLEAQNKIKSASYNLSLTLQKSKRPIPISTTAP
Parameters: key: below the threshold = too weak to quantify, mostly under pKd 3.1 to 4

pKd	Binder
below the threshold	NIAESLESLV [PTPRZ1, P23471]

What follows are binders tested against T7, HTRA3, P83110 (assay: holdup assay). Settings: plain residues with an end cap or a label only (N-terminal biotin on a linker: ado-ado).
Parameters: key: below the threshold = too weak to quantify, mostly under pKd 3.1 to 4

pKd	Binder
below the threshold	NIAESLESLV [PTPRZ1, P23471]

What follows are binders tested against GOPC, Q9HD26 (assay: holdup assay). Settings: plain residues with an end cap or a label only (N-terminal biotin on a linker: ado-ado).
Parameters: key: below the threshold = too weak to quantify, mostly under pKd 3.1 to 4

pKd	Binder
below the threshold	NIAESLESLV [PTPRZ1, P23471]

What follows are binders tested against T8, NHERF3_3, Q5T2W1 (assay: holdup assay). Settings: plain residues with an end cap or a label only (N-terminal biotin on a linker: ado-ado).
Parameters: key: below the threshold = too weak to quantify, mostly under pKd 3.1 to 4

pKd	Binder
below the threshold	NIAESLESLV [PTPRZ1, P23471]

The binders below were run against GRID2IP_2, A4D2P6 (assay: holdup assay). Settings: plain residues with an end cap or a label only (N-terminal biotin on a linker: ado-ado).
Sequence of GRID2IP_2, A4D2P6 (A4D2P6 272-370): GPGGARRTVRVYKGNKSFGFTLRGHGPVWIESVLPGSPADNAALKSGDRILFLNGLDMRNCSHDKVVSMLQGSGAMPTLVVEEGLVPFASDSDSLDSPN
Parameters: key: below the threshold = too weak to quantify, mostly under pKd 3.1 to 4

pKd	Binder
below the threshold	NIAESLESLV [PTPRZ1, P23471]

The binders below were run against T9, LNX2_2, Q8N448 (assay: holdup assay). Settings: plain residues with an end cap or a label only (N-terminal biotin on a linker: ado-ado).
Parameters: key: below the threshold = too weak to quantify, mostly under pKd 3.1 to 4

pKd	Binder
4.05	NIAESLESLV [PTPRZ1, P23471]

These binders were tested against SCRIB_3, Q14160 (assay: holdup assay). Settings: plain residues with an end cap or a label only (N-terminal biotin on a linker: ado-ado).
Sequence of SCRIB_3, Q14160 (Q14160 999-1103): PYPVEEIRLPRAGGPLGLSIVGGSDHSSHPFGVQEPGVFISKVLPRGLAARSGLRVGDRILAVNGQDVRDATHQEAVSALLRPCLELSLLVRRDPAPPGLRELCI
Parameters: key: below the threshold = too weak to quantify, mostly under pKd 3.1 to 4

pKd	Binder
3.87	NIAESLESLV [PTPRZ1, P23471]

These binders were tested against TJP2_1, Q9UDY2 (assay: holdup assay). Settings: plain residues with an end cap or a label only (N-terminal biotin on a linker: ado-ado).
Sequence of TJP2_1, Q9UDY2 (Q9UDY2 24-128): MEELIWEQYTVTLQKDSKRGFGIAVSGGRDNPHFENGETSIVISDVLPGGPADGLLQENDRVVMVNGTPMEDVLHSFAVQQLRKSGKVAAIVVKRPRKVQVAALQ
Parameters: key: below the threshold = too weak to quantify, mostly under pKd 3.1 to 4

pKd	Binder
below the threshold	NIAESLESLV [PTPRZ1, P23471]

What follows are binders tested against SNX27, Q96L92 (assay: holdup assay). Settings: plain residues with an end cap or a label only (N-terminal biotin on a linker: ado-ado).
Parameters: key: below the threshold = too weak to quantify, mostly under pKd 3.1 to 4

pKd	Binder
5.09	NIAESLESLV [PTPRZ1, P23471]
